# In publication PMC3662962:
# Substrate: O=[N+]([O-])c1ccc(OP(=O)(O)O)cc1
# Experiment: purified protein
# Settings: pH 8.0; 37.0 °C
Protein,Km [mM],Vmax [µmol/min/mg]
RsbU phosphatase domain (Mycobacterium tuberculosis H37Rv) (protein) AAGGDWFDALALGDRLVLVVGDVVGHGVEAAAVMSQLRTALRMQISAGYTVVEALEAVDRFHKQVPGSKSATMCVGSLDFTSGEFQYCTAGHPPPLLVTADASARYVEPTGAGPLGSGTGFPVRSEVLNIGDAILFYTDGLIERPGRPLEASTAEFADLAASIASGSGGFVLDAPARPIDRLCSDTLELLLRSTGYNDDVTLLAMQRR,7.47 ± 1.22,0.07
PAS+phosphatase fusion protein (Mycobacterium tuberculosis H37Rv) (protein) MAAEMDWDKTVGAAEDVRRIFEHIPAILVGLEGPDHRFVAVNAAYRGFSPLLDTVGQPAREVYPELEGQQIYEMLDRVYQTGEPQSGSEWRLQTDYDGSGVEERYFDFVVTPRRRADGSIEGVQLIVDDVTSRVRARQAAEARVEELSERYRNVRDSATVMQQALLAASVPVVPGADIAAEYLVAAEDTAAGGDWFDALALGDRLVLVVGDVVGHGVEAAAVMSQLRTALRMQISAGYTVVEALEAVDRFHKQVPGSKSATMCVGSLDFTSGEFQYCTAGHPPPLLVTADASARYVEPTGAGPLGSGTGFPVRSEVLNIGDAILFYTDGLIERPGRPLEASTAEFADLAASIASGSGGFVLDAPARPIDRLCSDTLELLLRSTGYNDDVTLLAMQRR,2.54 ± 0.35,0.07
